Experiment [1] concerns the target FLAG-V5-Blow (Drosophila). Put plainly: co-IP.
For experiment [2], the target named is FLAG-V5-WASP (Drosophila). Put plainly: co-IP.

In the case of FLAG-Sltr (natural protein), the dissociation constant Kd (commonly the free concentration of one partner at which half of the binding sites on the other are occupied at equilibrium, for simple one-to-one binding) in experiment [1] turned out to be 48.1 nM; in experiment [2], 6.7 nM.

Source of the values: PMC3179271.
